For one molecule, Activity and Relative activity results are on record in patent US7527809B2, “Polyhydroxyalkanoate-containing magnetic structure, and manufacturing method and use thereof” (Canon Kabushiki Kaisha, priority 2003, dated 2009).

A short description of the data set: PHA synthetic enzyme activity (CoA release, 5,5'-dithiobis-(2-nitrobenzoic acid)). It is filed as biochemical. The settings on record: purified enzymes, Table 1. An excerpt: Measurement of activity of PHA synthetic enzyme may be performed by using various known methods. For example, the measurement may be performed by the following method that is based on a measuring principle in that CoA released during polymerization of 3-hydroxyacyl CoA by the catalytic action of PHA synthetic enzyme to obtain PHA forms a color with 5,5′-dithiobis-(2-nitrobenzoic acid). Reagent 1: bovine serum albumin (manufactured by Sigma) dissolved in 0.1 M Tris hydrochloride buffer (pH 8.0) 3.0 mg/ml; Reagent 2: 3-hydroxyoctanoyl CoA dissolved in 0.1 M Tris hydrochloride buffer (pH 8.0) in 3.0 mM; Reagent 3: Trichloroacetic acid dissolved in 0.1 M Tris hydrochloride buffer (pH 8.0) in 10 mg/ml; Reagent 4: 5,5′-dithiobis-(2-nitrobenzoic acid) dissolved in 0.1 M Tris hydrochloride buffer (pH 8.0) in 2.0 mM. First reaction (PHA synthesis reaction): 100 μl of Reagent 1 is added to 100 μl of a sample (enzyme) solution and mixed. […] 500 μl of Reagent 4 is added to 500 μl of the resultant supernatant and the resultant is incubated at 30° C. for 10 minutes and then measured for optical density (absorbance) at 412 nm. […]
The activity of each purified enzyme was measured according to the method described above. Further, protein concentration in the sample was determined using a micro BCA protein assay reagent kit (available from Pierce Chemical Inc.). […]

B1: Purified enzyme solution (2): purified PHA synthetic enzyme YN2-C1 from pYN2-C1 (protein)
chain: MSNKSNDELKYQASENTLGLNPVVGLRGKDLLASARMVLRQAIKQPVHSVKHVAHFGLELKNVLLGKSGLQPTSDDRRFADPAWSQNPLYKRYLQTYLAWRKELHDWIDESNLAPKDVARGHFVINLMTEAMAPTNTAANPAAVKRFFETGGKSLLDGLSHLAKDLVHNGGMPSQVNMGAFEVGKSLGVTEGAVVFRNDVLELIQYKPTTEQVYERPLLVVPPQINKFYVFDLSPDKSLARFCLRNNVQTFIVSWRNPTKEQREWGLSTYIEALKEAVDVVTAITGSKDVNMLGACSGGITCTALLGHYAAIGENKVNALTLLVSVLDTTLDSDVALFVNEQTLEAAKRHSYQAGVLEGRDMAKVFAWMRPNDLIWNYWVNNYLLGNEPPVFDILFWNNDTTRLPAAFHGDLIELFKNNPLIRPNALEVCGTPIDLKQVTADIFSLAGTNDHITPWKSCYKSAQLFGGNVEFVLSSSGHIQSILNPPGNPKSRYMTSTEVAENADEWQANATKHTDSWWLHWQAWQAQRSGELKKSPTKLGSKAYPAGEAAPGTYVHER
modifications: Pseudomonas cichorii YN2; FERM BP-7375
In turn, B1 had an Activity of 2.1 U/ml and a Relative activity of 4.1 U/mg protein.
